Changes are numbered by the printed parent chain.
B1: Kp2 2C07 mAb (chimeric murine/human IgG) (antibody, V domains shown)
VH: EVKLVESGEGLVKPGGSLKLSCAASGFTFSSYAMSWVRQTPEKRLDWVAYISSGGDHIYYADTVKGRFTISRDNARNTLYLQMSSLKSEDTAMYYCTRDTGYYVSRYFDVWGTGTTVTVSS
VL: DIVMTQSQKFMSTSVGDRVSVTCKASQNVVTNVAWYQQKSGQSPKVVIYSASFRSSGVPDRFTGSGSGTDFTLTISNVQSEDLAEYFCHQYNSHPLTFGGGTKLEIK
B2: Ec3 B7 mAb (chimeric murine/human IgG) (antibody, V domains shown)
VH: EVQLQQPGAELVRPGASVKMSCKASGYTFTIYNLHWVKQTPRQGLEWIGTIYPGDGDTSYNQKFKGKATLTVDKSSSTAYMQLSNLTSEDSAVYFCAREGDYGPWFAYWGQGTLVTVSA
VL: QIVLTQSPAIMSASPGEKVTMTCRASSSVSSSYLHWYQQKSGASPKLWIYSSSNLASGVPARFSGSGSGTSYSLTINSVEAEDAATYYCQHYGSYPLTFGGGTKLEIK
B3: Kp1 2H04 mAb (chimeric murine/human IgG) (antibody, V domains shown)
VH: EVQLQQSGAELVKPGASVKLSCKASGYTFTSYWMHWVKQRPGQGLEWIGLIHPNSSSTYYNEKFKTRATLTVDKSSSTAYMQLSSLTSEDSAVYYCARLGYGNSYWYFDVWGTGTTVTVSS
VL: QIVLTQSPALMAASPGEKVTITCSVSSSISSSNLHWYQQKSETSPKPWIYGTSNLASGVPIRFSGSGSGTSYSLTISSLEAEDAATYYCQQWRSYPWTFGGGTKLEIK
B4: Ec1 F7 mAb (chimeric murine/human IgG) (antibody, V domains shown)
VH: EVQLQQPGPVLVKPGPSVKISCKASGFTFTDYFIHWVKQSHGKSLEWIGLVSPYNGGTYYNQQFKGKATLTVDTSSSTAYMDLNSLTSEDSAVYYCTRLLRGYWYFDVWGTGTTVTVSS
VL: B3 VL with S30G, I61V, L79M, R93S, S94T, W97Y

Legend:
Assay in all cases: ELISA
[1] = target: T1, K. pneumoniae (TOP52) FimH lectin domain truncate (Klebsiella pneumoniae TOP52, strain)
T1 chain: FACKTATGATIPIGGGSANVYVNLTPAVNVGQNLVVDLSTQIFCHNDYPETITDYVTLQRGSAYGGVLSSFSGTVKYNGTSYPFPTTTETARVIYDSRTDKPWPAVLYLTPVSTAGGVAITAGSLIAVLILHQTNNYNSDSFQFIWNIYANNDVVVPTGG

[2] = target: T2, E. coli (UTI89) FimH lectin domain truncate (Escherichia coli UTI89, strain)
T2 chain: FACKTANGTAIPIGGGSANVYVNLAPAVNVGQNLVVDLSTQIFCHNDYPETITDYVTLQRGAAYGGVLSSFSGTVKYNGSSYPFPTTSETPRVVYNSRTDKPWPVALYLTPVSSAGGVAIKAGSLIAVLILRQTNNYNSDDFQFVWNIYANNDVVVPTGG

[3] = target: T3, E. coli FmlH lectin domain (Escherichia coli UTI89 (strain from PDB …))
T3 chain: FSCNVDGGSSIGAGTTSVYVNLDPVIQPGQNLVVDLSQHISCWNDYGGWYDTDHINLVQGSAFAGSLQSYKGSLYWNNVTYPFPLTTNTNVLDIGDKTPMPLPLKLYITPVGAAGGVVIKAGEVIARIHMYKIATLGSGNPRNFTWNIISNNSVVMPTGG

| Binder | binding result [1] | binding result [2] | binding result [3] |
| --- | --- | --- | --- |
| B1 | binds | binds | no binding |
| B2 | – | binds | – |
| B3 | binds | binds | – |
| B4 | binds | binds | – |

From paper PMC11661314 (bioRxiv, 2024)
